Measurements: article PMC4425475

Key:
[1] = molecular target: sFlaF (soluble FlaF, Δ34FlaF, residues 35-164 with an N-terminal His-tag) (S. acidocaldarius); assay: SAXS
[2] = molecular target: S-layer isolated from S. acidocaldarius strain MW001 (WT) (S. acidocaldarius (endogenous in MW001)) (UniProt Q4J6E5); assay: co-sedimentation
[3] = molecular target: sFlaF-L101Y (S. acidocaldarius); assay: SEC
[4] = molecular target: sFlaF-R161A (S. acidocaldarius); assay: SEC

## sFlaF (soluble FlaF, Δ34FlaF, residues 35-164 with an N-terminal His-tag) (domain or fragment)
[1]
  stoichiometry N: 2
[2]
  percent bound: 50%

## sFlaF-L101Y (domain or fragment)
[3]
  stoichiometry N: 2

## sFlaF-R161A (domain or fragment)
[4]
  stoichiometry N: 2
